Measured values taken from paper doi:10.1101/2023.08.10.552813.

Tests used:
Assay in all cases: SPR
[1] = target: mouse Interleukin 33 (residues 112-270) (mouse)
[2] = target: HpARI_CCP2/3 (HpARI with CCP1 truncated) (Heligmosomoides polygyrus bakeri)
[3] = target: HpARI-LD (full-length HpARI with residues 180-188 of the CCP3 loop deleted) (Heligmosomoides polygyrus bakeri)
[4] = target: HpARI_CCP1/2 (HpARI with CCP3 truncated) (Heligmosomoides polygyrus bakeri)
[5] = target: Heligmosomoides polygyrus Alarmin Release Inhibitor (HpARI), full-length (Heligmosomoides polygyrus bakeri)

Chain of HpARI_CCP2/3 (HpARI with CCP1 truncated) (Heligmosomoides polygyrus bakeri) (A0A3P7XL18 63-297): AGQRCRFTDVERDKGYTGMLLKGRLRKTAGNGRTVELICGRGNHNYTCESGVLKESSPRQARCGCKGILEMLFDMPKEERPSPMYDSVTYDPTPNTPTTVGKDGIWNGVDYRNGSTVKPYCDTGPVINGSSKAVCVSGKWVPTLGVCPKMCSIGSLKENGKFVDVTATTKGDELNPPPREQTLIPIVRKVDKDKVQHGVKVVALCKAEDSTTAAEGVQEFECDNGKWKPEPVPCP

HpARI-LD (full-length HpARI with residues 180-188 of the CCP3 loop deleted) (natural protein)
percent reduction of mIL-33 binding against HpARI [1]: 60%
percent reduction of mIL-33 binding to ST2-Fc [1]: 25%

mouse IL-33 R159A (ligand)
fold reduction in binding affinity against wild-type mIL-33 [2]: 1000 fold

mouse Interleukin 33 (residues 112-270) (ligand)
Kd [3]: 45 nM
Kd [2]: 4 nM
Kd [4]: 49 nM
koff, fold over that of full-length HpARI [4]: > 100 fold
Kd [5]: 0.048 nM
